Measured values as given in patent US20130005646A1 (Novo Nordisk, published 2013).
Starred links: 1 amine or outer side, 2 acyl side, 3 side chain; linkers in the order of their positions; H or OH if unused. Positions of bridges follow the written chain, without caps; N, C: chain ends. Groups on a side chain read outwards from the residue. No end group written: not given here. *: point of attachment. X1 = (S)‑4‑Carboxy‑4‑(19-carboxynonadecanoylamino)butyryl, O=C(O)CCCCCCCCCCCCCCCCCCC(=O)N[C@@H](CCC(=O)*)C(=O)O; C20 diacid = O=C(O)CCCCCCCCCCCCCCCCCCC(=O)*; γGlu = O=C(O)[C@H](CCC(=O)[*:2])N[*:1]; AEEA = NCCOCCOCC(=O)O

T1: human amylin 3(a) receptor (human calcitonin receptor + RAMP-3) (human, UniProt P30988 25-474; O60896 24-148)
T1 sequence (looked up) 1: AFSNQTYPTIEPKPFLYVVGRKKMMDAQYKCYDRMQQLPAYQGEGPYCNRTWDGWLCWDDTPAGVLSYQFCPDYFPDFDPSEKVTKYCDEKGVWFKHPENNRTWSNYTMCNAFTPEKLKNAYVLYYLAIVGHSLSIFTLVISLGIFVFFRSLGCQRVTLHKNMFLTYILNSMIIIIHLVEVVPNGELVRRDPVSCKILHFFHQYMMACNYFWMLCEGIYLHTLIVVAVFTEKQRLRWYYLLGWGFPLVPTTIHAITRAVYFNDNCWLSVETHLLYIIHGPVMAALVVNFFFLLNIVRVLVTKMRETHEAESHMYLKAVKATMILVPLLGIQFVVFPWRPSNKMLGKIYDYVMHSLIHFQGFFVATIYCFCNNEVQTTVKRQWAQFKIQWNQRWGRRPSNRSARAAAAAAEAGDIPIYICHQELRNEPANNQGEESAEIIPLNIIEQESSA
T1 sequence (looked up) 2: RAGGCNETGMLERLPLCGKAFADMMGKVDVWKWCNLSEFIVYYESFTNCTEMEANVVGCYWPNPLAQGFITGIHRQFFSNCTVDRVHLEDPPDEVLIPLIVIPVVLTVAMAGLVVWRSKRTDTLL

T2: human calcitonin (a) receptor (human, UniProt P30988 25-474)
T2 sequence (looked up): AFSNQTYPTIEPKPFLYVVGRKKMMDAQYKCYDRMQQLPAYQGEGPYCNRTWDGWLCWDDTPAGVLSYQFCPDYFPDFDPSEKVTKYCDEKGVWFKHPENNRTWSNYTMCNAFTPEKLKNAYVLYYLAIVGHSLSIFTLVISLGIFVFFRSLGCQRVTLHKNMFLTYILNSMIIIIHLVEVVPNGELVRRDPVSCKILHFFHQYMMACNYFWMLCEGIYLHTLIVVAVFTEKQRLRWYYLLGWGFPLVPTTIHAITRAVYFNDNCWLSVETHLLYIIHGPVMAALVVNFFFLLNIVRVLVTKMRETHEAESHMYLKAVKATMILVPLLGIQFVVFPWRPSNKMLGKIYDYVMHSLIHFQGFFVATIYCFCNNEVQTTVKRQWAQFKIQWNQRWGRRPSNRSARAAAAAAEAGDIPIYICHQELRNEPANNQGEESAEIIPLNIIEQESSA


Key:
[1] = target: T1, human amylin 3(a) receptor (human …); assay: cell-based or functional assay
[2] = target: T2, human calcitonin (a) receptor; assay: cell-based or functional assay

Row | Binder | Amylin receptor human EC50 [1] [pM] | CTa receptor human EC50 [2] [pM]
1 | X1-HCNTATCATQRLAEFLHRSSNNFGAPLSSTNVGSNTY-NH2 (disulfide 2-7; SMILES CC(C)C[C@H](NC(=O)[C@H](CCCNC(=N)N)NC(=O)[C@H](CCC(N)=O)NC(=O)[C@@H](NC(=O)[C@H](C)NC(=O)[C@@H]1CSSC[C@H](NC(=O)[C@H](Cc2c[nH]cn2)NC(=O)CC[C@H](NC(=O)CCCCCCCCCCCCCCCCCCC(=O)O)C(=O)O)C(=O)N[C@@H](CC(N)=O)C(=O)N[C@@H]([C@@H](C)O)C(=O)N[C@@H](C)C(=O)N[C@@H]([C@@H](C)O)C(=O)N1)[C@@H](C)O)C(=O)N[C@@H](C)C(=O)N[C@@H](CCC(=O)O)C(=O)N[C@@H](Cc1ccccc1)C(=O)N[C@@H](CC(C)C)C(=O)N[C@@H](Cc1c[nH]cn1)C(=O)N[C@@H](CCCNC(=N)N)C(=O)N[C@@H](CO)C(=O)N[C@@H](CO)C(=O)N[C@@H](CC(N)=O)C(=O)N[C@@H](CC(N)=O)C(=O)N[C@@H](Cc1ccccc1)C(=O)NCC(=O)N[C@@H](C)C(=O)N1CCC[C@H]1C(=O)N[C@@H](CC(C)C)C(=O)N[C@@H](CO)C(=O)N[C@@H](CO)C(=O)N[C@H](C(=O)N[C@@H](CC(N)=O)C(=O)N[C@H](C(=O)NCC(=O)N[C@@H](CO)C(=O)N[C@@H](CC(N)=O)C(=O)N[C@H](C(=O)N[C@@H](Cc1ccc(O)cc1)C(N)=O)[C@@H](C)O)C(C)C)[C@@H](C)O) | 115 | 240
2 | {C20 diacid-γGlu}-HCNTATCATQRLAEFLHRSSNNFGEILSRTNVGSNTY-NH2 (disulfide 2-7; SMILES CC[C@H](C)[C@H](NC(=O)[C@H](CCC(=O)O)NC(=O)CNC(=O)[C@H](Cc1ccccc1)NC(=O)[C@H](CC(N)=O)NC(=O)[C@H](CC(N)=O)NC(=O)[C@H](CO)NC(=O)[C@H](CO)NC(=O)[C@H](CCCNC(=N)N)NC(=O)[C@H](Cc1c[nH]cn1)NC(=O)[C@H](CC(C)C)NC(=O)[C@H](Cc1ccccc1)NC(=O)[C@H](CCC(=O)O)NC(=O)[C@H](C)NC(=O)[C@H](CC(C)C)NC(=O)[C@H](CCCNC(=N)N)NC(=O)[C@H](CCC(N)=O)NC(=O)[C@@H](NC(=O)[C@H](C)NC(=O)[C@@H]1CSSC[C@H](NC(=O)[C@H](Cc2c[nH]cn2)NC(=O)CC[C@H](NC(=O)CCCCCCCCCCCCCCCCCCC(=O)O)C(=O)O)C(=O)N[C@@H](CC(N)=O)C(=O)N[C@@H]([C@@H](C)O)C(=O)N[C@@H](C)C(=O)N[C@@H]([C@@H](C)O)C(=O)N1)[C@@H](C)O)C(=O)N[C@@H](CC(C)C)C(=O)N[C@@H](CO)C(=O)N[C@@H](CCCNC(=N)N)C(=O)N[C@H](C(=O)N[C@@H](CC(N)=O)C(=O)N[C@H](C(=O)NCC(=O)N[C@@H](CO)C(=O)N[C@@H](CC(N)=O)C(=O)N[C@H](C(=O)N[C@@H](Cc1ccc(O)cc1)C(N)=O)[C@@H](C)O)C(C)C)[C@@H](C)O) | 77.9 | 131
3 | X1-HCNTATCATQRLAEFLHRSSNEFGARLSSTNVGSNTY-NH2 (disulfide 2-7; SMILES CC(C)C[C@H](NC(=O)[C@H](CCCNC(=N)N)NC(=O)[C@H](CCC(N)=O)NC(=O)[C@@H](NC(=O)[C@H](C)NC(=O)[C@@H]1CSSC[C@H](NC(=O)[C@H](Cc2c[nH]cn2)NC(=O)CC[C@H](NC(=O)CCCCCCCCCCCCCCCCCCC(=O)O)C(=O)O)C(=O)N[C@@H](CC(N)=O)C(=O)N[C@@H]([C@@H](C)O)C(=O)N[C@@H](C)C(=O)N[C@@H]([C@@H](C)O)C(=O)N1)[C@@H](C)O)C(=O)N[C@@H](C)C(=O)N[C@@H](CCC(=O)O)C(=O)N[C@@H](Cc1ccccc1)C(=O)N[C@@H](CC(C)C)C(=O)N[C@@H](Cc1c[nH]cn1)C(=O)N[C@@H](CCCNC(=N)N)C(=O)N[C@@H](CO)C(=O)N[C@@H](CO)C(=O)N[C@@H](CC(N)=O)C(=O)N[C@@H](CCC(=O)O)C(=O)N[C@@H](Cc1ccccc1)C(=O)NCC(=O)N[C@@H](C)C(=O)N[C@@H](CCCNC(=N)N)C(=O)N[C@@H](CC(C)C)C(=O)N[C@@H](CO)C(=O)N[C@@H](CO)C(=O)N[C@H](C(=O)N[C@@H](CC(N)=O)C(=O)N[C@H](C(=O)NCC(=O)N[C@@H](CO)C(=O)N[C@@H](CC(N)=O)C(=O)N[C@H](C(=O)N[C@@H](Cc1ccc(O)cc1)C(N)=O)[C@@H](C)O)C(C)C)[C@@H](C)O) | 126 | 278
4 | RCNTATCATQRLAEFLHRSSK([AEEA-AEEA-γGlu-19‑carboxyheptadecanoyl])NFGPILPPTNVGSNTY-NH2 (disulfide 2-7) | 99.4 | 469
5 | X1-HCNTATCATQRLAEFLVRSSNNFGPILPPTNVGSNTY-NH2 (disulfide 2-7; SMILES CC[C@H](C)[C@H](NC(=O)[C@@H]1CCCN1C(=O)CNC(=O)[C@H](Cc1ccccc1)NC(=O)[C@H](CC(N)=O)NC(=O)[C@H](CC(N)=O)NC(=O)[C@H](CO)NC(=O)[C@H](CO)NC(=O)[C@H](CCCNC(=N)N)NC(=O)[C@@H](NC(=O)[C@H](CC(C)C)NC(=O)[C@H](Cc1ccccc1)NC(=O)[C@H](CCC(=O)O)NC(=O)[C@H](C)NC(=O)[C@H](CC(C)C)NC(=O)[C@H](CCCNC(=N)N)NC(=O)[C@H](CCC(N)=O)NC(=O)[C@@H](NC(=O)[C@H](C)NC(=O)[C@@H]1CSSC[C@H](NC(=O)[C@H](Cc2c[nH]cn2)NC(=O)CC[C@H](NC(=O)CCCCCCCCCCCCCCCCCCC(=O)O)C(=O)O)C(=O)N[C@@H](CC(N)=O)C(=O)N[C@@H]([C@@H](C)O)C(=O)N[C@@H](C)C(=O)N[C@@H]([C@@H](C)O)C(=O)N1)[C@@H](C)O)C(C)C)C(=O)N[C@@H](CC(C)C)C(=O)N1CCC[C@H]1C(=O)N1CCC[C@H]1C(=O)N[C@H](C(=O)N[C@@H](CC(N)=O)C(=O)N[C@H](C(=O)NCC(=O)N[C@@H](CO)C(=O)N[C@@H](CC(N)=O)C(=O)N[C@H](C(=O)N[C@@H](Cc1ccc(O)cc1)C(N)=O)[C@@H](C)O)C(C)C)[C@@H](C)O) [N-alpha-[(S)-4-Carboxy-4-(19-carboxynonadecanoylamino)butyryl]-[His1,Glu14,Arg18]-pramlintide] | 83 | 125
6 | {C20 diacid-γGlu}-HCGTATCATQRLAEFLHRSSSSFGPILPPTEVGSETY-NH2 (disulfide 2-7; SMILES CC[C@H](C)[C@H](NC(=O)[C@@H]1CCCN1C(=O)CNC(=O)[C@H](Cc1ccccc1)NC(=O)[C@H](CO)NC(=O)[C@H](CO)NC(=O)[C@H](CO)NC(=O)[C@H](CO)NC(=O)[C@H](CCCNC(=N)N)NC(=O)[C@H](Cc1c[nH]cn1)NC(=O)[C@H](CC(C)C)NC(=O)[C@H](Cc1ccccc1)NC(=O)[C@H](CCC(=O)O)NC(=O)[C@H](C)NC(=O)[C@H](CC(C)C)NC(=O)[C@H](CCCNC(=N)N)NC(=O)[C@H](CCC(N)=O)NC(=O)[C@@H](NC(=O)[C@H](C)NC(=O)[C@@H]1CSSC[C@H](NC(=O)[C@H](Cc2c[nH]cn2)NC(=O)CC[C@H](NC(=O)CCCCCCCCCCCCCCCCCCC(=O)O)C(=O)O)C(=O)NCC(=O)N[C@@H]([C@@H](C)O)C(=O)N[C@@H](C)C(=O)N[C@@H]([C@@H](C)O)C(=O)N1)[C@@H](C)O)C(=O)N[C@@H](CC(C)C)C(=O)N1CCC[C@H]1C(=O)N1CCC[C@H]1C(=O)N[C@H](C(=O)N[C@@H](CCC(=O)O)C(=O)N[C@H](C(=O)NCC(=O)N[C@@H](CO)C(=O)N[C@@H](CCC(=O)O)C(=O)N[C@H](C(=O)N[C@@H](Cc1ccc(O)cc1)C(N)=O)[C@@H](C)O)C(C)C)[C@@H](C)O) | 313 | 198
7 | {C20 diacid-γGlu}-HHHCNTATCATQRLAEFLVHSSNNFGPILPPTNVGSNTY-NH2 (disulfide 4-9; SMILES CC[C@H](C)[C@H](NC(=O)[C@@H]1CCCN1C(=O)CNC(=O)[C@H](Cc1ccccc1)NC(=O)[C@H](CC(N)=O)NC(=O)[C@H](CC(N)=O)NC(=O)[C@H](CO)NC(=O)[C@H](CO)NC(=O)[C@H](Cc1c[nH]cn1)NC(=O)[C@@H](NC(=O)[C@H](CC(C)C)NC(=O)[C@H](Cc1ccccc1)NC(=O)[C@H](CCC(=O)O)NC(=O)[C@H](C)NC(=O)[C@H](CC(C)C)NC(=O)[C@H](CCCNC(=N)N)NC(=O)[C@H](CCC(N)=O)NC(=O)[C@@H](NC(=O)[C@H](C)NC(=O)[C@@H]1CSSC[C@H](NC(=O)[C@H](Cc2c[nH]cn2)NC(=O)[C@H](Cc2c[nH]cn2)NC(=O)[C@H](Cc2c[nH]cn2)NC(=O)CC[C@H](NC(=O)CCCCCCCCCCCCCCCCCCC(=O)O)C(=O)O)C(=O)N[C@@H](CC(N)=O)C(=O)N[C@@H]([C@@H](C)O)C(=O)N[C@@H](C)C(=O)N[C@@H]([C@@H](C)O)C(=O)N1)[C@@H](C)O)C(C)C)C(=O)N[C@@H](CC(C)C)C(=O)N1CCC[C@H]1C(=O)N1CCC[C@H]1C(=O)N[C@H](C(=O)N[C@@H](CC(N)=O)C(=O)N[C@H](C(=O)NCC(=O)N[C@@H](CO)C(=O)N[C@@H](CC(N)=O)C(=O)N[C@H](C(=O)N[C@@H](Cc1ccc(O)cc1)C(N)=O)[C@@H](C)O)C(C)C)[C@@H](C)O) [N-alpha-[(S)-4-Carboxy-4-(19-carboxynonadecanoylamino)butyryl]-His-His-[His1,Glu14]-pramlintide] | 151 | 740
